Laboratory results reported in US20090208454A1 (AMBRX, published 2009).

Biological target: T1, IFNAR2 extracellular domain (UniProt P48551 27-243, limits assumed)
T1 construct: extracellular domain; It was immobilized on a CM5 Biacore chip by lysine-specific coupling; also called IFNAR2ECD; IFNAR ECD
T1 sequence (looked up): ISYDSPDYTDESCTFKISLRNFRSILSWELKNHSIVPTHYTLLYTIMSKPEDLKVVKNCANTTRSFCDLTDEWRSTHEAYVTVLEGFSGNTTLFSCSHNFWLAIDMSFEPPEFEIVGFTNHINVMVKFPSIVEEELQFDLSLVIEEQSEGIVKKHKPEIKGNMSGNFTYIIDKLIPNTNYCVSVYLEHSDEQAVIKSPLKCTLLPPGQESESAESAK
Assay: Biacore SPR, IFNAR2 ECD immobilized on CM5 chip, IFN injected, 1:1 model, average Kd
Protocol: The refolding reaction was then concentrated to 25 ml using an Amicon stirring cell, and dialyzed overnight against 20 mM Tris, pH 8, 20 mM NaCl, 10% glycerol. Monomeric refolded IFNAR ECD was purified on HP Q Sepharose using the AKTA FPLC system (Amersham). Purified IFNAR2ECD was immobilized on CM5 Biacore chip using a lysine-specific coupling procedure recommended by the manufacturer. About 200 RUs of functional protein were immobilized. Various concentrations of IFN beta variants in HBS-EP buffer (Biacore) were injected at a flow rate of 50 mcl/minute over the flowcell containing immobilized IFNAR2, and a control flowcell containing immobilized bovine serum albumin. Sensograms generated were fit to the 1:1 interaction model to calculate kₒₙ, koff and Kd values using BiaEvaluation software (Biacore).

- Kd: 0.8 nM
B1: (C17S)-IFNβ (ligand)
chain: MSYNLLGFLQRSSNFQSQKLLWQLNGRLEYCLKDRMNFDIPEEIKQLQQFQKEDAALTIYEMLQNIFAIFRQDSSSTGWNETIVENLLANVYHQINHLKTVLEEKLEKEDFTRGKLMSSLHLKRYYGRILHYLKAKEYSHCAWTIVRVEILRNFYFINRLTGYLRN
notes: also called IFN beta with C17S substitution; (C17S)-IFN beta
